# Source: US20100092467A1 (US Dept. of Health and Human Services, published 2010)
# Ends that are not written are not given here. * marks the point of attachment. Biotin = O=C1N[C@H]2[C@H](CS[C@H]2CCCCC(=O)*)N1
# Biological target: CD36, murine, endogenous on cells (mouse) (UniProt Q08857)
# Assay: cell-based or functional assay
# Chain of CD36, murine, endogenous on cells (mouse) (Q08857 whole entry): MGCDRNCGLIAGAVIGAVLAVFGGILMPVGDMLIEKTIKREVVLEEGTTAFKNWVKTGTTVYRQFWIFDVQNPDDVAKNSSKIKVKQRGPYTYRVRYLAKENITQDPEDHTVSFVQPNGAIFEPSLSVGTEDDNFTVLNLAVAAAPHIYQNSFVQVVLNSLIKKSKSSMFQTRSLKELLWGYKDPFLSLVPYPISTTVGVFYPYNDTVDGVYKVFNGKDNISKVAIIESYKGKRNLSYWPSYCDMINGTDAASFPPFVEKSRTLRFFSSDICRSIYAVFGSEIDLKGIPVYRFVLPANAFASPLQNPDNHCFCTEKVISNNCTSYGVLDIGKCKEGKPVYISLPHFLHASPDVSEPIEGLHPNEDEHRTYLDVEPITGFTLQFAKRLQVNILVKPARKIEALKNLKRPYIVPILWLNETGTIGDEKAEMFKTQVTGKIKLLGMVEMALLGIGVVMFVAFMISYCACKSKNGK
row,NO-stimulated adhesion of MASMC on type I collagen,Molecule
1,22 nM,"Thrombospondin-1 (TSP1), prepared from human platelets (from UniProt P07996 19-1170) (ligand)"

# Biological target: CD47, human, endogenous on cells (human, UniProt Q08722 19-323)
# Assay: cell-based or functional assay
NO-driven HASMC adhesion to collagen,cGMP signaling IC50**,Molecule
–,~10000 nM,IGWKDFTAAR [peptide 37555 (IGWKDFTAAR)]
–,> 10000 nM,IGWHDFTAYR [peptide 37414 (IGWHDFTAYR)]
–,~1000 nM,AGWKDFTAYR [peptide 37416 (AGWKDFTAYR)]
–,~100 nM,HIGWKDFTAYRWRLS [peptide C6b (HIGWKDFTAYRWRLS)]
–,~100 nM,IGYKDFTAYR [peptide 37417 (IGYKDFTAYR)]
–,1000 nM,IGWKEFTAYR [peptide 37415 (IGWKEFTAYR)]
–,~100 nM,Biotin-IGWKDFTAYR [peptide C6d (biotin-IGWKDFTAYR)]

# The remaining lines, values behind:
Molecule,NO-driven HASMC adhesion to collagen,cGMP signaling IC50**
"E3CaG1, recombinant C-terminal regions of TSP1 (from UniProt P07996 646-1170) (ligand)",> 0.4 nM,–
IGWKDYTAYR [peptide 37298 (IGWKDYTAYR)],–,~100 nM
IGWKNFTAYR [peptide 37297 (IGWKNFTAYR)],–,> 10000 nM
IGWKDFAAYR [peptide 37299],–,> 10000 nM
IGWADFTAYR [peptide 37413],–,> 10000 nM
Ac-WKDFTAYR [peptide 37300 (Ac-WKDFTAYR)],–,~1000 nM
